B1: Intercellular adhesion molecule 5 (Homo sapiens), Q9UMF0 (parent)
chain: MPGPSPGLRRALLGLWAALGLGLFGLSAVSQEPFWADLQPRVAFVERGGSLWLNCSTNCPRPERGGLETSLRRNGTQRGLRWLARQLVDIREPETQPVCFFRCARRTLQARGLIRTFQRPDRVELMPLPPWQPVGENFTLSCRVPGAGPRASLTLTLLRGAQELIRRSFAGEPPRARGAVLTATVLARREDHGANFSCRAELDLRPHGLGLFENSSAPRELRTFSLSPDAPRLAAPRLLEVGSERPVSCTLDGLFPASEARVYLALGDQNLSPDVTLEGDAFVATATATASAEQEGARQLVCNVTLGGENRETRENVTIYSFPAPLLTLSEPSVSEGQMVTVTCAAGAQALVTLEGVPAAVPGQPAQLQLNATENDDRRSFFCDATLDVDGETLIKNRSAELRVLYAPRLDDSDCPRSWTWPEGPEQTLRCEARGNPEPSVHCARSDGGAVLALGLLGPVTRALSGTYRCKAANDQGEAVKDVTLTVEYAPALDSVGCPERITWLEGTEASLSCVAHGVPPPDVICVRSGELGAVIEGLLRVAREHAGTYRCEATNPRGSAAKNVAVTVEYGPRFEEPSCPSNWTWVEGSGRLFSCEVDGKPQPSVKCVGSGGATEGVLLPLAPPDPSPRAPRIPRVLAPGIYVCNATNRHGSVAKTVVVSAESPPEMDESTCPSHQTWLEGAEASALACAARGRPSPGVRCSREGIPWPEQQRVSREDAGTYHCVATNAHGTDSRTVTVGVEYRPVVAELAASPPGGVRPGGNFTLTCRAEAWPPAQISWRAPPGALNIGLSSNNSTLSVAGAMGSHGGEYECAATNAHGRHARRITVRVAGPWLWVAVGGAAGGAALLAAGAGLAFYVQSTACKKGEYNVQEAESSGEAVCLNGAGGGAGGAAGAEGGPEAAGGAAESPAEGEVFAIQLTSA

Variants of B1 are the subject of the experiment. To be noted: with actn1_chick ACTN1, P05094.
Chain of actn1_chick ACTN1, P05094 (P05094 whole entry): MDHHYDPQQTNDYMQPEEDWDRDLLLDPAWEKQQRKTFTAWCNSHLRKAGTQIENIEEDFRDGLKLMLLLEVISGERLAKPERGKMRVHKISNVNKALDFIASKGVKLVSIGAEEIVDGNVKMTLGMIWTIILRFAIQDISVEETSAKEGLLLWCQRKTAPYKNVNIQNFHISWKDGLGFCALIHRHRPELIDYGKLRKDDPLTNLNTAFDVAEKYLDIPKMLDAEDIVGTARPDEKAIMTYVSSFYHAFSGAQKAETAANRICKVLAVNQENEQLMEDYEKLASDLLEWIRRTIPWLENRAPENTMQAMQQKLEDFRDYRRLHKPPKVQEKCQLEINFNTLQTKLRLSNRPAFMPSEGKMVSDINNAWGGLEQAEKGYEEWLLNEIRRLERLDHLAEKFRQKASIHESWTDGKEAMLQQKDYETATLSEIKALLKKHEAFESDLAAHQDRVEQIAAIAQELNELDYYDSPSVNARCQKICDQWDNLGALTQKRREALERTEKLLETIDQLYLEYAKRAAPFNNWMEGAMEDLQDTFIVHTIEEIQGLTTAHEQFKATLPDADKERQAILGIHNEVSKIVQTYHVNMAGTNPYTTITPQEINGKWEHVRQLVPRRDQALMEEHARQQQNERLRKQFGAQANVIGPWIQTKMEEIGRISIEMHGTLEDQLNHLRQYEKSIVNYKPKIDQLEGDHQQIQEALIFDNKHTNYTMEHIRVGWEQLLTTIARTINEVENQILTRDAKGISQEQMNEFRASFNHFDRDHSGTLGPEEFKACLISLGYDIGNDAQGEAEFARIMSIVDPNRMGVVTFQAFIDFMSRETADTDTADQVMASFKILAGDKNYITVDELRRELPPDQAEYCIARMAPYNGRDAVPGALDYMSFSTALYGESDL
Turning to K866R, the “effect of a mutation on the interaction” value was “decreasing interaction”. With K866A the entry was “decreasing interaction”; with K866A;K867A, “disrupting interaction”. In the case of K867A, the “effect of a mutation on the interaction” value is “disrupting interaction”. The result for K867R reads “decreasing interaction”.

Values taken from IntAct's records for PubMed 16820411.
